Molecular target: purified native poly-γ-D-glutamic acid (γDPGA) from B. licheniformis strain 9945 (B. licheniformis)
Assay: ELISA

| Substance | fold more mAb required for OD450 = 2.0 than with the IgG3 subclass [fold] |
| --- | --- |
| mAb F24F2 IgG1 subclass switch variant (antibody) | > 15 |
| mAb F24F2 IgG2a subclass switch variant (antibody) | > 15 |
| mAb F24F2 IgG2b subclass switch variant (antibody) | > 15 |
| mAb F26G3 IgG1 subclass switch variant (antibody) | > 15 |
| mAb F26G3 IgG2a subclass switch variant (antibody) | > 15 |
| mAb F26G3 IgG2b subclass switch variant (antibody) | > 15 |

Source: article PMC3630167
